According to a protein production outcome set (Wang et al. 2014):

Experiment: label from the status in PepcDB records
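Note: failed if final PepcDB status was selected cloned or expressed and not failed if soluble or beyond.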

| Sequence | protein production |
| --- | --- |
| MKEKVVSLAQDLIRRPSISPNDEGCQQIIAERLEKLGFQIEWMPFNDTLNLWAKHGTSEPVIAFAGHTDVVPTGDENQWSSPPFSAEIIDGMLYGRGAADMKGSLAAMIVAAEEYVKANPNHKGTIALLITSDEEATAKDGTIHVVETLMARDEKITYCMVGEPSSAKNLGDVVKNGRRGSITGNLYIQGIQGHVAYPHLAENPIHKAALFLQELTTYQWDKGNEFFPPTSLQIANIHAGTGSNNVIPAELYIQFNLRYCTEVTDEIIKQKVAEMLEKHNLKYRIEWNLSGKPFLTKPGKLLDSITSAIEETIGITPKAETGGGTSDGRFIALMGAEVVEFGPLNSTIHKVNECVSVEDLGKCGEIYHKMLVNLLDS | not failed |
| MEHGTESFWTDIKRYEDILAKDPGSYCFAPLSELYRKVGLLDDAIMTARTGIGQHPEYVGGYMALGRACFEKGERTESRAALEKVVRVTPDNLLAQKLLSQIYVDAGESDLARRCLEIILSLSPGDLESKLMLDAMCRQPRENADRADDLFNEMGAAAAIDLEDESLLEEIEIIEELVDEVVDEEDLAAFTAHAPPPPLAEESFADVLLDEEPVANADVPSPRDVLSTGTVADLYIAQGFPKKALAIYRDLLDADPLNEDIRNRMVDLKKRIDEDEARARESVLAEAVSATDTTAQIQGDLTADREAFKEEAASGFAVESAHEVDIPLEVAVSAESSLNVAEEKEASAAHVVSALEGWLDSIRRIRQCRSVLH | failed |
| MPDGPDPSSYGPDESPGPDPEEPSSSETAPARHARTTTASRRGHARERMPVSPDESASTFTFDRVVRFLLGAAAVGSVGWMVWYFAGIVLYLIVGGLLAYLLRPPVDYIQGLGVGRVPAILVAFAVFLGVIVVIVTSVVPFITRQVQDLSQLITIDTAAYVANLIEAQVQGVVPLEQGVLEENVRQAAESLMRGDLVEGQQVAETVSSVVSVFTNIVYAVVIVPFVTFFLLKDELRIRRSLLHLVPNRYFEVTLSILAKVELNIGRYFRALLVQGTAIAVIASTLLWIVGLRGAIAIGIFTGLANTIPYFGPFLGFLAGTLVGIAQTGDVSLVPGVALAMALTQLADNVLLQPLIFSRAAQTHPLVILFVVLAGAQLGGILGMLMAIPLTTTLRVIVEQLLWSLRNYRILRAG | failed |
| MRRRKAPVREVLGDPVYGNKVVTKFINKMMFDGKKSVAEKIIYKAFNKIEEKSGEKGIEVFEKALERVRPLVEVRSRRVGGATYQVPVEVRASRQQSLSIRWILEATRKRNERMMVDRLANELMDAASDKGAAFKKKEDVHKMAEANKAFAHYRW | failed |
| MRSNYAKKLVAGTLVASMTITASMPLFADELATEIPSAGAAVIVEDYINNSGKETDIEKLLPTEATDSTATANETTKTENQTEKTQTSNTATSSEDKLFANIAITKVSGGAEDYVNVRKKPTTESKVVGKIYNNSGAKILEKTNNGWYKIVSGNCTGYIKSDFFVTGSSAKSRALDNGYVQAEAKDAIHVRAEASTNSKVVTNVYKNETYTIKKFDKTGEWIKVKIKAGVSGWISAQYANVNINMETAITRKIEKAKIKKEREAAKAAAKAAAEEEARKQAEQQEQQASNDNSQSSSDGTYSNSSNSSSRSNYSNSSSSSSSSSSSSSSSSSKKSHSSSSSSSSGSGTGAAIVAYAKQFLGNPYVYGGASLTNGTDCSGFTMSVYAHFGYGLSRSSYTQVNNGRAVSMSSLQPGDLLFYKYGGSTISHVAIYIGGGQIIHASTEETGIIISGMGSPCAARRIIG | failed |
| MRYSIYLCILFVLSILSCNSKQEDRVIESFYVRKDDLGRNVSISVNPKRILSLTPSITELVYTFSDTSRLIGRSVWCDYPAGVKVIPAVNNYPLDIEGVVRLKPDLILVKQGMISVQELDKLEQLHLAVYVQKYDLLNEIYASTKTLVEITKGDSATYKHWLTSMQSDTMHTSVQHAKTCLAVTSVSPIYVFGKTTFVSELIEQAGGKNCVETIQSAYPTVDVEYILRANPDVFIFNSTDQQKLFFETYPLLKQCKGYITNQLFVIDDSIMSRPGIRLPILKDSLVSILSK | failed |
| MANAKPVCSLFHSTFHDGIASVFHRSFSFPLLLILLIAFSGSGYANSSKETRAAARSESAGKTVSSRWAKGRLLVIPRAGLTAMEFDKATKPYGVKSRRRLNGLNAHVYELPDGVDEVKVLDKLKKDRRFKAVELDRLVEPAQVVTDPAFGNSWALPKIQAPAAWDIATGDGITIAILDTGVDGTHPDLAANMLPGWNAYDNNTDTSDIYGHGTKVAGTAAAVANNGAGSSGLAWNARILPVRISMPDGRAYLSDMAKGIRWAADNGARIANISYGGAESLTVQSAANYMRSKGGVVVMSAGNSGGLNNFPASNAIIVASATDSKDARASWSSYGPYVDVAAPGVSIYTTIRGGGYGYVSGTSFSSPIVAAAAALLFSINPDLAPTDIDQMLTATAQDLGNAGYDQYYGHGRINAASAVNAAHARISVDRTAPLISIASPTGGTVSGSVPVDVNYSDNKGVVRVDLYVNGRKTIEDTQPPFAFAWDTTTLANGSYTLVAYAFDAAGNQGTSSTVNVTVKNTVADTTPPTISITSPAGGAVVLGSVPVNVNSSDNIGVVRTELHVNGKKVMEGTGSSFVWDTKSLADGNYTLVAYAFDAAGNQGASSPVAVSVKNTGTTTNTEPLPQINSFNLRDGQNVSRNQNIRVTADRNTRKINLKINGGIIAAANGNSLSYRWNTSAIPKNSNITVTAEAFNAKGDATSRTVTVRN | failed |
| MSTKKPAAAYSEASIKVLKGLEPVKQRPGMYTRTENPLHIIQEVIDNASDEALGGFGKQITVTLHPDQSVSVEDDGRGIPFGLHPEEKVPVVEIVFTRLHAGGKFDKAKGGAYTFSGGLHGVGVSVTNALATRLDVTVWRDGKIAQLGFADGDVVKPLATQGAGRGEKKSGTRVTVWPNPKYFDSPNLPLGELQRLLRSKAVLLPGVEVVLVNEKTGERQSWKYEDGLRGYLLDEMNGSELLIPLFEGERFADSRSGDDTFAEGEGASWVVAWSEEGSLVRESYVNLIPTPAGGTHESGLRDGLYQAVKSFVELHNLQPKGVKLLAEDVFARVSFVLSAKVLDPQFQGQIKERLNSRDAVKLVSSFTRPALELWLNQHVEHGKKLAELVIKQAQARTRAGQKIEKKKSSGVAVLPGKLTDCETEDIARNELFLVEGDSAGGSAKMGRDKEYQAILPLRGKVLNTWETERDRLFANNEVHDISVAIGVDPHGPDDSVDVSNLRYGKICILSDADVDGAHIQVLLLTLFFKHFPQLIERGHVFVARPPLFRVDAPARGKKPAQKLYALDEGELEAILDKLRKDGVRESQWTISRFKGLGEMSAEQLWDTTMNPDTRRLMPVALGELDFEATVARMTMLMGKGEAAARRNWLEEKGNEVEADI | failed |
| MKKTPIYVEISIQAEMERLWRYTQDPTLHRQWDLRFTDITYLKRRPGEPQRFLYETRIGFGLKISGTGESAGNVFQDTGDRVSSLKFATNHPLSVIREGRGYWKYSESETGITFMTQYDYDTRYGRLGRLADMAFRPLLGWATAWSFDALKIWLEKGLHPRLLFQKTLVYWLVCLLFSFVWIYQGLVPKLIMAHPGEISMLSAFTGGRFHPETLLRLIGLAEVMVGVLWLYPVRKRKWFLLHIVLLVLLSASAGMADIASFAEPFNPVVLNAALIILSVIGYVSACGIPNAGNTIRKRR | failed |
| SSRKSGIGHEASLKRKAEEKLESYRKKIHMKNQAEEKAAEQFRMRLKNKQDEMKLEGDLRRSQRACQQLDVQKNIQVPREAWYWLRLEEETEEDEEEKEQDEDEYKSEDLSVLEKLQILTSYLREEHLYCIWCGTAYEDKEDLSSNCPGPTSADHD | failed |
| MATKLVIAIVQDKDANYLSDQFIDQNVRATKLSTTGGFLQSGNTTFMIGIEEERVPEVLEIIKKASHTREEFMTPSVNMDVNMEGTTAYPIKVQVGGATVLVLPVDQFERF | not failed |
| MNFKLNNTLSNEINTLIIGIPEHLNQLERISFNHIDITESLERLKHQHIIGSKVGKIYTTAFDVQDQTYRLITVGLGNLKTRSYQDMLKIWGHLFQYIKSEHIEDTYLLMDSFISKYDQLSDVLMACGIQSERATYEFDHYKSSKKAPFKTNLNLISESLIELDFIHEGISIGQSINLARDFSNMPPNVLTPQTFAEDIVNHFKNTKVKVDVKDYDTLVSEGFGLLQAVGKGSKHKPRLVTITYNGKDKDEAPIALVGKGITYDSGGYSIKTKNGMATMKFDMCGAANVVGIIEAASRLQLPVNIVGVLACAENMINEASMKPDDVFTALSGETVEVMNTDAEGRLVLADAVFYANQYQPSVIMDFATLTGAAIVALGDDKAAAFESNSKVILNDILQISSEVDEMVFELPITATERASIKHSDIADLVNHTNGQGKALFAASFVTHFSGQTPHIHFDIAGPATTNKASYNGPKGPTGFMIPTIVQWLKQQ | not failed |
| MASVNSPIRTFLKPLLFKLFGKNVYARFQFYAKIKDIDKRLVEEKEMELLPYFLNKDSNSIDVGANYAYYTVGMSKLSKKVFAYEPIPFTYKVCKMLLKHYNCANVDLFAQGVGEKNEIKRFNVPVVDFGGISAGQAHMADRNNELKGKEQHYQFSKNEAYDCTVVSLDAAITDITPISFVKMDIEGAEYFALKGMQQLLLKHKPVILIEINPFFLTGFDIKENDLKNLIASHAYKTYIYSAELKKLQAFECAYFESNYILIPEEKIAQFNAIIE | failed |
| MKKTLPKTEAPSSVGNGSDSPIEFDAIIRQVPDMDAAYVEIPFDVKTVYGKGRVRVNATFDGYPYTGYIVRMGLPCHILGLRQDIRRAIGKQPGDSVYVTLLPL | not failed |
| MTLEKKEYGAPGFWPGSMIGRVHAFETPAPLTRAQLDRLRDEFFETRTEGHLEIWTAIRAASHAQEAGDDELAYAIITAVGILPAEVGPAGEGLGERIPFAEQPLDRLLGMICGCCFPAFTRYRTLERVYDQRGFLYETPKECIATPSNVLPDESTEASAR | not failed |
| MTHERGYDLASQVLNICNVHHKKLFCHITYRHLLVLSSDDNGCVILKKVITIADDFLKDEFLDLIAQHAHSLSMHDLGISLIQHVLELDFTKKTTQDDKRLHELMAEFDEVLSTSVTADVDKLHKLASKLMLDSDLFFEFVITRRGSLMIQIILGKSEEVDQVILAGVKQRFIDVTTNFYGYRIMIQTIKVFKKRGDLKVYDQILRLIGVHALYLTKDPDMGNKTFQHAINLHHQDCTTFIACGLQSHYIELSFLKHGSKIVEMLIDDRISMVPLVLLMMEIVKCDEDTLVRLATDEYGNNILKKFLALAKEHKEDFFGDLVDKLNPLLDSLRGTLGENIVAIIDSETEMVKDRIVSQGNN | failed |
| IRSIWENNGFGLMSSKTMTDFDYWISDFEKIGASQKEAEQLIVKAIEIAIDANARNYNYINAILKDWEQRGFKSVEEREA | not failed |
| MLVALITLAFIHFCALITPGPDFFLVSQTAVSRSRKEAMLVVAGITAGVMFWASLALMGLNIIFEKMAWLKQGLLIAGGLYLCWLGYQMLRSAFSKNQQEEVTTVELPKAPYLFFMKGLLTNLSNPKAVIYFGSVFSLFLANPQLDQVHWLLFIIVSVETILWFCFVTFIFSLPSFRAAYRNFSKWIDGISGGIFTVFGIFLIGNR | failed |
| MKARQQKYCDKIANFWCHPTGKIIMSLAGKKIVLGVSGGIAAYKTPELVRRLRDRGADVRVAMTEAAKAFITPLSLQAVSGYPVSDSLLDPAAEAAMGHIELGKWADLVILAPATADLIARVAAGMANDLVSTICLATPAPVAVLPAMNQQMYRAAATQHNLEVLASRGLLIWGPDSGSQACGDIGPGRMLDPLTIVDMAVAHFSPVNDLKHLNIMITAGPTREPLDPVRYISNHSSGKMGFAIAAAAARRGANVTLVSGPVSLPTPPFVKRVDVMTALEMEAAVNASVQQQNIFIGCAAVADYRAATVAPEKIKKQATQGDELTIKMVKNPDIVAGVAALKDHRPYVVGFAAETNNVEEYARQKRIRKNLDLICANDVSQPTQGFNSDNNALHLFWQDGDKVLPLERKELLGQLLLDEIVTRYDEKNRR | failed |
